Assay results as given in PMC6125681, “Stability of local secondary structure determines selectivity of viral RNA chaperones”.
Several values for one entry are separate records, joined by “and”; a condition that tells them apart may be missing. Equal values may be shown once.

How the values were obtained:
[1] = molecular target: T1, σNS (Avian reovirus (strain not given)) (UniProt W8NR44); test: fluorescence anisotropy
T1 sequence: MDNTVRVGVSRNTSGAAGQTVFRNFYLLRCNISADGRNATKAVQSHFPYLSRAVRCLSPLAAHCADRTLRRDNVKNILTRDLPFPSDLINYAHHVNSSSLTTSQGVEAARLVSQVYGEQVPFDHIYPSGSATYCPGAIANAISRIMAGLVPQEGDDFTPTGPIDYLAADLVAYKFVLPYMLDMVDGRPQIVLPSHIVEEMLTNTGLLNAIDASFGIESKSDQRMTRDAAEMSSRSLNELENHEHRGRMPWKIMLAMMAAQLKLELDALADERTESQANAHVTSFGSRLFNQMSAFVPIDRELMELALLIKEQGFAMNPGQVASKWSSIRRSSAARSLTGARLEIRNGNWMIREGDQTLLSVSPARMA

[2] = molecular target: avian reovirus (ARV) σNS (avian reovirus); test: native MS; nanoESI-IMS-MS of σNS apoprotein, 20 μM, 200 mM ammonium acetate pH 7.6; no RNA
[3] = molecular target: avian reovirus (ARV) σNS (avian reovirus); test: as above; remark: listed apart in the source
[4] = molecular target: avian reovirus (ARV) σNS (avian reovirus); test: native MS; nanoESI-IMS-MS of σNS–RNP complex (σNS saturated with unstructured 20mer RNA), 20 μM, 200 mM ammonium acetate pH 7.6
NSP2 [5] = molecular target: T2, NSP2 (Rotavirus (strain  in …, UniProt A2T3N6 1-317)); test: FCCS; multiple RNAs per octamer; conditions: protein: recombinant; chain copies: 8; label: Cy3 or Cy5 (same string printed for both); unstructured; text calls the two labelled RNAs distinct non-complementary
T2 sequence: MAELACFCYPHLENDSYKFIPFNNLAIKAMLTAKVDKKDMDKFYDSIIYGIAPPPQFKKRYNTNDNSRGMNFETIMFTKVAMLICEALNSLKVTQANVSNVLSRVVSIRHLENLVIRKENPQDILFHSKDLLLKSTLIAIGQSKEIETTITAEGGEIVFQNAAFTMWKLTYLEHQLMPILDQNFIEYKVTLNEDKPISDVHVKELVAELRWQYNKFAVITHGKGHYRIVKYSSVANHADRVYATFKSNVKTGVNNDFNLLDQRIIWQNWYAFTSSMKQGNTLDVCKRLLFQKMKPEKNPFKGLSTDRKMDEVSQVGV

NSP2 [6] = molecular target: T2, NSP2; test: fluorescence anisotropy; no Mg2+; one value given for all three RNAs; conditions: protein: recombinant, chain copies: 8, label: 5' AlexaFluor488, hairpin
NSP2 [7] = molecular target: T2, NSP2; test: single-pair FRET; 25 nM protein; binds folded and unfolded RNA; conditions: protein: recombinant; chain copies: 8; Methods state the reverse; hairpin, -8.9 kcal/mol
NSP2 [8] = molecular target: T2, NSP2; test: fluorescence anisotropy; no Mg2+; conditions: protein: recombinant; chain copies: 8; label: 5' AlexaFluor488; unstructured, MFE 0
NSP2 [9] = molecular target: T2, NSP2; test: fluorescence anisotropy; 10 mM MgCl2; conditions: protein: recombinant; chain copies: 8; label: 5' AlexaFluor488; unstructured, MFE 0

Work on “UCUUUGCAAACAUGCAAAGA [stable 20mer hairpin]” yielded a Kd [1] of 137 nM.

With “avian reovirus (ARV) σNS (natural protein)” the stoichiometry N [2] was 6, the stoichiometry N [3] was 8 and the stoichiometry N [4] was 8 and 6.

“CUUUUCAAGACAUGCAACAA [unstructured 20mer]” showed a Kd [1] of 37 nM and a binding signal (fold Kd increase vs no Mg2+) [1] of 1.5.

For CUUCUUUCGAAAUUAAGAAG [metastable 20mer], the Kd [1] was 24 nM.

UUCCUUCUAUUUCUUCU (ssRNA) [17mer (S11-derived)]: binds (NSP2 [5]).

In the case of UCUUUGCAAACAUGCAAAGA (structured_RNA) [stable 20mer hairpin], the Kd (NSP2 [6]; -8.1 kcal/mol) is reported as ~20 nM.

Work on CUUCUUUCGAAAUUAAGAAG (structured_RNA) [metastable 20mer] yielded a Kd (NSP2 [6]; -3.8 kcal/mol) of ~20 nM.

AAAUCUUUGCAAACUAUCCAAUCCAUGCAAAGAUAA (structured_RNA) [dual-labelled 36mer stem-loop]: binds (NSP2 [7]).

Molecule CUUUUCAAGACAUGCAACAA (ssRNA) [unstructured 20mer] has a Kd (NSP2 [8]) of 20.7 ± 1.67 nM and a Kd (NSP2 [9]) of 28 ± 1.48 nM.
